Positions count from the first letter of the chain named.

B1: T7 sigma-like fragment with 601 split + SZ18 (other)
chain: MSIAATLENDLARLENENARLEKDIANLERDLAKLEREEAYFGGSGGKNTGEISEKVKLGTKALAGQWLAYGVTRSVTKSSVMTLAYGSKEFGFRQQVLEDTIQPAIDSGKGLMFTQPNQAAGYMAKLIWESVSVTVVAAVEAMNWLKSAAKLLAAEVKDKKTGEILRKRCAVHWVTPDGFPVWQEYKKPIQTRLNLMFLGQFRLQPTINTNKDSEIDAHKQESGIAPNFVHSQDGSHLRKTVVWAHEKYGIESFALIHDSFGTIPADAANLFKAVRETMVDTYESCDVLADFYDQFADQLHESQLDKMPALPAKGNLNLRDILESDFAFA
notes: also called T7 fragment; variable fragment
B2: T3 sigma-like fragment with 601 split + SZ18 (other)
chain: B1 chain with S80R, T193K, N196D, L197M, M198I
notes: also called T3 fragment; T3 sigma factor
B3: K1FR sigma-like fragment with 601 split + SZ18 (other)
chain: B1 chain with S80R, M198R, Q202S, R204N, I209V

The target of the test is T1, Core fragment with 601 split + SZ17 (Bacteriophage T7, UniProt P00573 1-601).
T1 construct: Expressed constitutively in cells from a single copy plasmid, not purified; also called conserved fragment; 1-601 fragment
T1 sequence (P00573 1-601, tags or fused parts left off): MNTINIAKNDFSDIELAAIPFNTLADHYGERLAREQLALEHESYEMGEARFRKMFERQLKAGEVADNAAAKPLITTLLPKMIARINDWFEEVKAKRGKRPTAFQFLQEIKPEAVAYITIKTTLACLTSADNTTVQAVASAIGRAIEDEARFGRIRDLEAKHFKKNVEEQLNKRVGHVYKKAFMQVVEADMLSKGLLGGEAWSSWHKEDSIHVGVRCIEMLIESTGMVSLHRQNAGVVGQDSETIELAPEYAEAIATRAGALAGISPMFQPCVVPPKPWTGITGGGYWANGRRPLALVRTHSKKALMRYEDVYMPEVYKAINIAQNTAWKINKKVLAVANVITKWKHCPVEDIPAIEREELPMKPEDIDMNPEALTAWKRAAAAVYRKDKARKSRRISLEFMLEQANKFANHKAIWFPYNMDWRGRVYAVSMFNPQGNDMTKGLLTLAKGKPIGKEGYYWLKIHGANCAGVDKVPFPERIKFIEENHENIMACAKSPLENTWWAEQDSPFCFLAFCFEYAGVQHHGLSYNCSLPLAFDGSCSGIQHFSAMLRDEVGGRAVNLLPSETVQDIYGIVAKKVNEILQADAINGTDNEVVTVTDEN
The test can be described thus: reporter assay in cells: core at a constant level, sigma-like fragment induced, promoter->sfgfp read by flow cytometry. The method, then:
Cells containing the three test plasmids (constitutive expression of core, promoter->sfgfp reporter, and pTac->sigma-like fragment) were inoculated into 0.5 mL LB+antibiotics and grown to saturation overnight. The overnight cultures were diluted 1:200 into 0.15 mL LB+antibiotics+100 μM IPTG and grown at 37° C., 1000 rpm for 6 hours. The fluorescence of the cells was quantified using a flow cytometer (FIG. 8). The assay was performed on three separate days, with three technical replicates per day. Data shown is the average value over all three days, with error bars representing the standard deviation between the mean values on each day.
(In general: In a reporter assay the amount or activity of a reporter protein is the signal.)
For the molecule B1, the binding result is given as “binds”.
B2: the binding result is given as “binds”.
For the molecule B3, the binding result is listed as “binds”.

For the origin of these results see patent US20150368625A1 (MIT, published 2015).
